Consider one molecule from US6750057 (UNIVERSITY OF FLORIDA, dated 2004).

In this experiment the target is Native MBP (UniProt P0AEX9 27-392 = MBP). As to the kind of experiment: in vitro pull-down on amylose resin, SDS-PAGE and autoradiography. On the procedure:
The ^35S-labeled XA21 kinase was then incubated with resin-bound MBP or MBP fusion proteins (1 ug) in the binding buffer [20 mM Hepes (pH 7.4), 1 mM EDTA, 5 mM MgCl_2, 1 mM DTT, 0.1% Triton X-100, 1 mg/ml BSA, 1× complete protease inhibitors (Roche Diagnostics)] for 120 min at 4° C. with gentle shaking. After washing with the washing buffer [20 mM Hepes (pH 7.4), 1 mM EDTA, 5 mM MgCl_2, 1 mM DTT, 0.1% Triton X-100] five times, the bound proteins were eluted with the washing buffer supplemented with 10 mM maltose and resolved by 8% SDS-PAGE according to Laemmli. Laemmli, Nature 227, 680 (1970). The gel was stained with Coomassie brilliant blue R-250, dried, and exposed to X-ray film.

B1: 35S-labeled XA21 kinase (enzyme)
chain: HKRTKKGAPSRTSMKGHPLVSYSQLVKATDGFAPTNLLGSGSFGSVYKGKLNIQDHVAVKVLKLENPKALKSFTAECEALRNMRHRNLVKIVTICSSIDNRGNDFKAIVYDFMPNGSLEDWIHPETNDQADQRHLNLHRRVTILLDVACALDYLHRHGPEPVVHCDIKSSNVLLDSDMVAHVGDFGLARILVDGTSLIQQSTSSMGFIGTIGYAAPEYGVGLIASTHGDIYSYGILVLEIVTGKRPTDSTFRPDLGLRQYVELGLHGRVTDVVDTKLILDSENWLNSTNNSPCRRITECIVWLLRLGLSCSQELPSSRTPTGDIIDELNAIKQNLSGLFPVCEGGSLEF
modifications: 35S-methionine labelled by in vitro transcription/translation. The label does not change the letters.
notes: Made with the TnT kit from a pET-28a construct; also called XA21 protein labeled with 35S; not shown: Vector-encoded N-terminal leader of pET-28a (His/T7 tag and the few residues from the BamHI/SalI primer sites)
In the case of B1, the binding result was “no binding (tested: 1 ug resin-bound protein)”.
